B1: F1-P (peptide)
peptide: DECLMSVEALKNCMGG
B2: F2-2 (peptide)
peptide: WRCVDDLGGFQYCWAG
B3: F2-P (peptide)
peptide: ARCVVDAGGTWYCWAG
B4: F2-1 (peptide)
peptide: LGCASDLAGFWYCWAG
B5: SGTACRWGPSWLLCSLAGSP (peptide)
chain: SGTACRWGPSWLLCSLAGSPGGGSGGGAEGDDPAKAAFNSLQASATEYIGYAWAMVVVIVGATIGIKLFKKFTSKAS
notes: naive clone; polyvalent P8 display on phage; STII signal left out
B6: GEGPECDLRQWGNLCGHWET (peptide)
chain: GEGPECDLRQWGNLCGHWETGGGSGGGAEGDDPAKAAFNSLQASATEYIGYAWAMVVVIVGATIGIKLFKKFTSKAS
notes: as for B5
B7: LSSEECWEALKWQGCLMSER (peptide)
chain: LSSEECWEALKWQGCLMSERGGGSGGGAEGDDPAKAAFNSLQASATEYIGYAWAMVVVIVGATIGIKLFKKFTSKAS
notes: as for B5
B8: SFCEFNDWWPTCLV (peptide)
chain: SFCEFNDWWPTCLVGGGSGGGAEGDDPAKAAFNSLQASATEYIGYAWAMVVVIVGATIGIKLFKKFTSKAS
notes: as for B5
B9: GVETCYSDAMNTQYCWTTEL (peptide)
chain: GVETCYSDAMNTQYCWTTELGGGSGGGAEGDDPAKAAFNSLQASATEYIGYAWAMVVVIVGATIGIKLFKKFTSKAS
notes: as for B5
B10: EVARCVVDAGGTWYCWAEMA (peptide)
chain: EVARCVVDAGGTWYCWAEMAGGGSGGGAEGDDPAKAAFNSLQASATEYIGYAWAMVVVIVGATIGIKLFKKFTSKAS
notes: as for B5
B11: GESTCVTDLERVEYCWDEKS (peptide)
chain: GESTCVTDLERVEYCWDEKSGGGSGGGAEGDDPAKAAFNSLQASATEYIGYAWAMVVVIVGATIGIKLFKKFTSKAS
notes: as for B5
B12: HPDKCFADVRALQECMESVR (peptide)
chain: HPDKCFADVRALQECMESVRGGGSGGGAEGDDPAKAAFNSLQASATEYIGYAWAMVVVIVGATIGIKLFKKFTSKAS
notes: as for B5
B13: REVKCMKDLSGHEYCWAEPR (peptide)
chain: REVKCMKDLSGHEYCWAEPRGGGSGGGAEGDDPAKAAFNSLQASATEYIGYAWAMVVVIVGATIGIKLFKKFTSKAS
notes: as for B5
B14: STYSCIRDMGWAVYCWETTL (peptide)
chain: STYSCIRDMGWAVYCWETTLGGGSGGGAEGDDPAKAAFNSLQASATEYIGYAWAMVVVIVGATIGIKLFKKFTSKAS
notes: as for B5
B15: EAGAESRGWLQARCGELLGV (peptide)
chain: EAGAESRGWLQARCGELLGVGGGSGGGAEGDDPAKAAFNSLQASATEYIGYAWAMVVVIVGATIGIKLFKKFTSKAS
notes: as for B5
B16: VEEKCYESITALRHCMQAMQ (peptide)
chain: VEEKCYESITALRHCMQAMQGGGSGGGAEGDDPAKAAFNSLQASATEYIGYAWAMVVVIVGATIGIKLFKKFTSKAS
notes: as for B5
B17: VESECLLSLPNLRRCMMDRL (peptide)
chain: VESECLLSLPNLRRCMMDRLGGGSGGGAEGDDPAKAAFNSLQASATEYIGYAWAMVVVIVGATIGIKLFKKFTSKAS
notes: as for B5
B18: VKDECLMSVEALKNCMGLVS (peptide)
chain: VKDECLMSVEALKNCMGLVSGGGSGGGAEGDDPAKAAFNSLQASATEYIGYAWAMVVVIVGATIGIKLFKKFTSKAS
notes: as for B5
B19: VMDQCFESYAEMRKCMLDGS (peptide)
chain: VMDQCFESYAEMRKCMLDGSGGGSGGGAEGDDPAKAAFNSLQASATEYIGYAWAMVVVIVGATIGIKLFKKFTSKAS
notes: as for B5
B20: IECWQDLQGTRLCWE (peptide)
chain: IECWQDLQGTRLCWEGGGSGGGAEGDDPAKAAFNSLQASATEYIGYAWAMVVVIVGATIGIKLFKKFTSKAS
notes: as for B5
B21: GASTTCLEKYRERQWCKELT (peptide)
chain: GASTTCLEKYRERQWCKELTGGGSGGGAEGDDPAKAAFNSLQASATEYIGYAWAMVVVIVGATIGIKLFKKFTSKAS
notes: as for B5
B22: GEAAECAYDSLGMAYCYAKE (peptide)
chain: GEAAECAYDSLGMAYCYAKEGGGSGGGAEGDDPAKAAFNSLQASATEYIGYAWAMVVVIVGATIGIKLFKKFTSKAS
notes: as for B5
B23: QIPAGCYESVQSLLECVQSA (peptide)
chain: QIPAGCYESVQSLLECVQSAGGGSGGGAEGDDPAKAAFNSLQASATEYIGYAWAMVVVIVGATIGIKLFKKFTSKAS
notes: as for B5
B24: TAGIECAYDKHLDQYCWWKE (peptide)
chain: TAGIECAYDKHLDQYCWWKEGGGSGGGAEGDDPAKAAFNSLQASATEYIGYAWAMVVVIVGATIGIKLFKKFTSKAS
notes: as for B5
B25: HWDWTGGYWWIGREPWKEAA (peptide)
chain: HWDWTGGYWWIGREPWKEAAGGGSGGGAEGDDPAKAAFNSLQASATEYIGYAWAMVVVIVGATIGIKLFKKFTSKAS
notes: as for B5
B26: GAQAWLCEQREEWCGQMLGT (peptide)
chain: GAQAWLCEQREEWCGQMLGTGGGSGGGAEGDDPAKAAFNSLQASATEYIGYAWAMVVVIVGATIGIKLFKKFTSKAS
notes: as for B5
B27: YDWVEACQKWPVLCMDSTMY (peptide)
chain: YDWVEACQKWPVLCMDSTMYGGGSGGGAEGDDPAKAAFNSLQASATEYIGYAWAMVVVIVGATIGIKLFKKFTSKAS
notes: as for B5
B28: GIREELCDKGLHKMCFREVR (peptide)
chain: GIREELCDKGLHKMCFREVRGGGSGGGAEGDDPAKAAFNSLQASATEYIGYAWAMVVVIVGATIGIKLFKKFTSKAS
notes: as for B5
B29: CECGKVSSRGCEKLCWLVSYM (peptide)
chain: CECGKVSSRGCEKLCWLVSYMGGGSGGGAEGDDPAKAAFNSLQASATEYIGYAWAMVVVIVGATIGIKLFKKFTSKAS
notes: as for B5
B30: DAMDCVVGPEWRKCFLEG (peptide)
chain: DAMDCVVGPEWRKCFLEGGGGSGGGAEGDDPAKAAFNSLQASATEYIGYAWAMVVVIVGATIGIKLFKKFTSKAS
notes: as for B5

Assays:
IGF-1 [1] = target: T1, IGF-1 (human, UniProt P05019 49-118); assay: cell-based or functional assay
T1 sequence (P05019 49-118): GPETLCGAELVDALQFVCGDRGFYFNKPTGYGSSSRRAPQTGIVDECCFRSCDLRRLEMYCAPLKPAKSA

BSA = BSA (UniProt P02769 25-607); assay: phage ELISA, BSA on plate
BSA, sequence (P02769 25-607 limits assumed): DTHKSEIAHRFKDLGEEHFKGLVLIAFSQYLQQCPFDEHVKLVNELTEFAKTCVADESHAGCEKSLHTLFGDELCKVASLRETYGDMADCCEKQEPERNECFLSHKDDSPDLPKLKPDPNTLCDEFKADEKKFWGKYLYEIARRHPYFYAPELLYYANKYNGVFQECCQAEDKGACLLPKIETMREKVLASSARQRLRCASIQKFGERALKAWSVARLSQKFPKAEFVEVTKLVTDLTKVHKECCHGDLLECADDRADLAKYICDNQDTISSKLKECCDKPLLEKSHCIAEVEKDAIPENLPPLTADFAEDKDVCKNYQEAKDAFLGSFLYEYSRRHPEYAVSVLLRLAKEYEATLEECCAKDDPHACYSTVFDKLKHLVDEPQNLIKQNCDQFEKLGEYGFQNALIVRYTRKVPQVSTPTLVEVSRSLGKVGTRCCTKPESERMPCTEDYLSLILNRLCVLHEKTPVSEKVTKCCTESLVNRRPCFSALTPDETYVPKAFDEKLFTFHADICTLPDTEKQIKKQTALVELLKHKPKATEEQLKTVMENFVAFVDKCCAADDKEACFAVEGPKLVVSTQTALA
Description: (§1) From each round, individual peptide-displaying phage were isolated and analyzed for binding to IGF-1 in a phage ELISA by capturing the peptide-phage with IGF-1 immobilized on a plate, and detecting bound phage (see below). As a control for non-specific binding, the phage were also analyzed in a phage ELISA that used plates coated with BSA. […]
(§2) MAXISORP™ immunoplates (96-well) were coated with capture target protein for 2 hours at room temperature (100 μL at 5 μg/mL in 50 mM carbonate buffer, pH 9.6). The plates were then blocked for 1 h with 0.2% BSA in phosphate-buffered saline (PBS) and washed eight times with PBS, 0.05% TWEEN®-20 detergent. Phage particles were serially diluted into BSA blocking buffer and 100 μL were transferred to coated wells. After I h, plates were washed eight times with PBS, 0.05% TWEEN®-20 detergent, incubated with 100 μL of 1:3000 horse radish peroxidase/anti-M 13 antibody conjugate in BSA blocking buffer for 30 min. and then washed eight times with PBS, 0.05% TWEEN®-20 detergent and two times with PBS. Plates were developed using a tetramethylbenzidine substrate (TMB, Kirkegaard and Perry, Gaithersburg, Md.), stopped with 1.0 M H3PO₄, and read spectrophotometrically at 450 nm.

IGF-1 [2] = target: T1, IGF-1; assay: phage ELISA, IGF-1 on plate
Description: as §1, §2

Binder	IGF-1 KIRA (IGF-1 [1]) [µM]	Insulin KIRA (IGF-1 [1]) [µM]	binding result (BSA)	binding result (IGF-1 [2])
B1	400	183	–	–
B2	130	93.6	–	–
B3	–	300	–	–
B4	–	40.4	–	–
B5	–	–	no binding	binds
B6	–	–	no binding	binds
B7	–	–	no binding	binds
B8	–	–	no binding	binds
B9	–	–	no binding	binds
B10	–	–	no binding	binds
B11	–	–	no binding	binds
B12	–	–	no binding	binds
B13	–	–	no binding	binds
B14	–	–	no binding	binds
B15	–	–	no binding	binds
B16	–	–	no binding	binds
B17	–	–	no binding	binds
B18	–	–	no binding	binds
B19	–	–	no binding	binds
B20	–	–	no binding	binds
B21	–	–	no binding	binds
B22	–	–	no binding	binds
B23	–	–	no binding	binds
B24	–	–	no binding	binds
B25	–	–	no binding	binds
B26	–	–	no binding	binds
B27	–	–	no binding	binds
B28	–	–	no binding	binds
B29	–	–	no binding	binds
B30	–	–	no binding	binds

— patent US20030092631A1 (Genentech, published 2003)
